Earlier results, collected in US8278280B2, “Antagonists of the bradykinin B1 receptor” (priority 2003, dated 2012).

Molecular target: T1, B2 receptors (Homo sapiens, UniProt P30411)
T1 sequence (P30411 1-391): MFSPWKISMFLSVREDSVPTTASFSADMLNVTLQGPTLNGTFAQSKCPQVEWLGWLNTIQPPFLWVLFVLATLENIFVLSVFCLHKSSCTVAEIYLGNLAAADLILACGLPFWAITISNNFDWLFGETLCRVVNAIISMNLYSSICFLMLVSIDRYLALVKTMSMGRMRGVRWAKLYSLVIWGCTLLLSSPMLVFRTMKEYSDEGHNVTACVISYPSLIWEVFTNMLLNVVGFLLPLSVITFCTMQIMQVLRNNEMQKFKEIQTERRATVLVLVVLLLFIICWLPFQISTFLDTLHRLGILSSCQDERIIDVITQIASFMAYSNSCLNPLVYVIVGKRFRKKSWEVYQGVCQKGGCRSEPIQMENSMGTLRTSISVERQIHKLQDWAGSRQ

Substance: Arg Pro Pro Gly Phe Ser Pro Phe (RPPGFSPF; listed as Homo sapiens) [des-Arg-BK, B1 Agonist]
- activity at B2 receptors: inactive
